Measured values as given in US20240343761A1, “APELINERGIC MACROCYCLES AND USES THEREOF” (priority 2021, published 2024).
Read-outs that look alike come from different tables or passages of the source. Numbered stars: 1 amine (or outer) side, 2 acyl side, 3 side chain; on linkers, the order of the positions; unused ones are H or OH. Bridge positions count the residues as written; N and C are the ends. Square brackets hold non-standard residues; d marks the D form. Ends that are not written are not given here. Peptide text beside a SMILES is read from it. * marks the point of attachment. cypTyr(OBn) = 3-cyclopentyl-O-benzyl-L-tyrosine, O=C([C@H](Cc1ccc(OCc2ccccc2)c(C2CCCC2)c1)N[*:1])[*:2]; Hyp(OBn) = O-benzyl-4-hydroxyproline, O=C([C@@H]1C[C@@H](OCc2ccccc2)CN1[*:1])[*:2]; cypY = 3-cyclopentyl-tyrosine, O=C([C@H](Cc1ccc(O[*:3])c(C2CCCC2)c1)N[*:1])[*:2]; Tyr(OBn) = O-benzyl-tyrosine, O=C([C@H](Cc1ccc(OCc2ccccc2)cc1)N[*:1])[*:2]; pent‑4‑enoyl = des-amino allylglycine (Ø = desamino analog), C=CCCC(=O)*; Rx = Nα-allyl-arginine, C=CCN([C@@H](CCCNC(=N)N)C(=O)[*:2])[*:1]; Alnb = Nγ-allyl-Nγ-nosyl-α,γ-diamino-butanoic acid; Oic = O=C(O)[C@@H]1C[C@@H]2CCCC[C@@H]2N1; Phe(4-Br) = N[C@@H](Cc1ccc(Br)cc1)C(=O)O; Benzoyl(4-Br) = O=C(c1ccc(Br)cc1)*; hArg = N=C(N)NCCCC[C@H](N)C(=O)O; dcypTyr(OBn) = not defined here; AllylGly = C=CC[C@H](N)C(=O)O; pGlu = O=C1CC[C@@H](C(=O)O)N1; Nle = CCCC[C@H](N)C(=O)O; AIH = not defined here; B1 = not defined here; B3 = not defined here

Key:
[1] = Rat plasma stability (half-life in vitro); format: in vitro ADME; details: male, Sprague-Dawley, rat, plasma, Table I; rat plasma, 37° C., up to 24 h
Description: Plasma was obtained from male Sprague-Dawley rats by collecting blood in heparin tube and centrifugating at 13,000 rpm to remove blood cells. The isolated plasma was stored at −80° C. and thawed right before the test. In 96-well plate, 6 μL of peptide solution at 1 mM was incubated with 27 μL of plasma at 37° C. in an oven equipped with orbital shaker. Tightly fitted caps were used to seal the wells to avoid water evaporation during incubation. […] A 96-well UPLC plate was put at the bottom to collect the samples. Both plates were centrifuged at 500 g for 10 min at 4° C. to accelerate the filtration. […] The quantity of remaining peptide was plotted into an exponential one-phase decay curve using GraphPad Prism 8 which allowed to calculate peptide half-life. The results were presented as mean±SEM of at least 3 independent experiments, each done in simplicate.
The percentage of remaining analogue was calculated by doing the ratio between AU of compound and AUC of internal standard. Half-lives were extrapolated from curves.

[2] = target: T1, human APJ (hAPJ) (Homo sapiens, UniProt P35414); test: Competitive radioligand binding ([125I][Nle75,Tyr77][Pyr1]-Ape13) on membranes of HEK293 cells stably expressing human APJ; details: Ki binding
T1 construct: expressed in transfected cells; cell membranes
T1 sequence (P35414 1-380): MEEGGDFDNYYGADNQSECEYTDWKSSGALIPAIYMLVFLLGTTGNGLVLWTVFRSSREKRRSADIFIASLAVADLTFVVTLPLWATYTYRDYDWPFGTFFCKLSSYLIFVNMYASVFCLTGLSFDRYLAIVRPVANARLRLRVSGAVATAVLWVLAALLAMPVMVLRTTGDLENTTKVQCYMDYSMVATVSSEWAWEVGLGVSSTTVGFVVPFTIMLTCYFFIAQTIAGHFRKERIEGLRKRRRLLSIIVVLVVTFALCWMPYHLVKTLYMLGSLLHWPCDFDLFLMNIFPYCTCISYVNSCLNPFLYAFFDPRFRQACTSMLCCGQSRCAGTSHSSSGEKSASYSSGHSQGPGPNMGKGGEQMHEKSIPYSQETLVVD
Description: HEK293 cells stably expressing YFP-tagged human APJ were cultured in DMEM medium supplemented with 10% FBS, at 37° C. under a humid atmosphere maintaining 5% CO2. Antibiotic G418 (400 μg/mL) was added to maintain a selection pressure for APJ-expressing cells while penicillin/streptomycin (0.1%) were used to prevent bacterial contamination.
Binding experiments were performed on cell membranes of HEK293 stably expressing the YFP-tagged human APJ receptor. Cells were frozen at −80° C. for storage and quickly thawed right before the experiments (1 min at 37° C.). […] The precipitate (cell membranes) was suspended in binding buffer (50 mM Tris-HCl, 0.2% BSA, pH 7.4). Binding assays were run in 96-well plates. […] (820 Ci/mmol)^3 and test ligand with a range of concentrations from 10^−1 to 10^−11 M in a total volume of 200 μL for 1 h at room temperature.
The incubation mixtures were filtered through a glass fiber filter (Millipore, pre-absorbed of PEI 0.5% for 2 h at 4° C.) to remove unbound ligands, and the filter membranes were washed three times with 170 μL cold binding buffer (4° C.). The γ emission was measured using a 1470 Wizard γ-counter from PerkinElmer (Waltham, USA) (80% efficiency).

[3] = target: T2, human APJ (transfected HEK293 cells, Gαi1 BRET assay) (human, UniProt P35414 1-380); test: cell-based or functional assay
T2 sequence (looked up): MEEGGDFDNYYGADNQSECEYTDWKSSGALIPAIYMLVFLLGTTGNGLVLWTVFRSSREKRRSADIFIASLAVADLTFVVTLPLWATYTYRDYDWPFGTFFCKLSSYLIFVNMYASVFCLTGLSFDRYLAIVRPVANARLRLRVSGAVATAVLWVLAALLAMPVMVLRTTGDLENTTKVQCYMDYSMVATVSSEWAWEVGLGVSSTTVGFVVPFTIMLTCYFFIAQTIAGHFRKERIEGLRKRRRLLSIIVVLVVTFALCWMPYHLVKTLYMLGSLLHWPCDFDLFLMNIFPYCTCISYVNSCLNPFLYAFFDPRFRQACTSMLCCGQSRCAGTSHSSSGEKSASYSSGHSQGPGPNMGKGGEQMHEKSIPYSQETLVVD

[4] = target: T3, YFP-tagged human APJ receptor (human, UniProt P35414 1-380); test: competitive radioligand binding, HEK293-hAPJ membranes
T3 construct: whole, on cells; also called hAPJ; APJ WT; not shown: YFP tag
T3 sequence (looked up): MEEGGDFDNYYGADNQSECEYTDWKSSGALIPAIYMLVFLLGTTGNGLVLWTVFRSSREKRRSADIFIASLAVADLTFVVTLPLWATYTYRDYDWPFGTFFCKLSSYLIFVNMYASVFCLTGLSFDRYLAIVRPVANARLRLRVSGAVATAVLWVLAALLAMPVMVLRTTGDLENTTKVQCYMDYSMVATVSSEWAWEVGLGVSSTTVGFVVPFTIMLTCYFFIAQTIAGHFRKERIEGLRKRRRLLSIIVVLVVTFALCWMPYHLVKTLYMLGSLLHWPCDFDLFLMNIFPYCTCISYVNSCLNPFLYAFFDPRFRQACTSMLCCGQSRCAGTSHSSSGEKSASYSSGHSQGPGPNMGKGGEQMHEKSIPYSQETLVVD

[5] = target: T3, YFP-tagged human APJ receptor; test: as above; remark: listed apart in the source
[6] = target: T3, YFP-tagged human APJ receptor; test: as above; remark: listed apart in the source
[7] = target: T2, human APJ (transfected HEK293 cells, …); test: cell-based or functional assay; remark: listed apart in the source
[8] = target: T2, human APJ (transfected HEK293 cells, …); test: cell-based or functional assay; remark: listed apart in the source

Molecule: CC(C)C[C@@H]1NC(=O)[C@H](CCCNC(=N)N)NC(=O)[C@@H](N)CC=CC[C@@H](C(=O)N[C@@H](CCCCN)C(=O)NCC(=O)N2CCC[C@H]2C(=O)N[C@@H](C)C(=O)O)NC(=O)[C@H](CO)NC1=O [Compound 34, NH2-c[X-R-L-S-X]c-K-G-P-Ala] (H-[AllylGly]RLS[AllylGly]KGPA-OH; staple 1-5)
- half-life at 0.182 mM [1]: 48 ± 18 min
- Ki [2]: > 10000 nM

B1: Compound 72 (AM03-37) (peptide)
peptide: KRRE[Nle]PLHSRVPFP
modifications: lactam 1-4
- EC50 Gail [3]: 1.7 nM
- Ki [4]: 0.87 nM

B2: Compound 76 (AM03-40) (peptide)
peptide: [pGlu]RRSKPLHERVPFP
modifications: lactam 5-9
- Ki [4]: 119 nM

B3: Compound 46 (KT01-145) (peptide)
peptide: Ac-ENTN[8‑aminooctanoic acid]RPRLKHKGP[Nle]PF
modifications: lactam 1-10
- Ki [5]: 32 nM

B4: Compound 63 (KT02-76) (peptide)
peptide: Ac-KFRRQRPRLEHKKP[Nle]P[cypTyr(OBn)]
modifications: lactam 10-13
- Ki [6]: 0.25 nM
- EC50 Gαi1 [7]: 5.47 nM

B5: Compound 74 (AM03-38) (peptide)
peptide: [pGlu]RRK[Nle]PEHSRVPFP
modifications: lactam 4-7
- Ki [4]: 261 nM

B6: Compound 67 (KT02-18) (peptide)
peptide: Ac-KFRRQRPRLEHKKP[Nle]P[B1]
modifications: lactam 10-13; reading uncertain
- Ki [6]: 12 nM

B7: Compound 69 (KT02-20) (peptide)
peptide: Ac-KFRRQRPRLEHKKP[Nle]P[B3]
modifications: lactam 10-13; reading uncertain; also: B3 structure not given here
- Ki [6]: 3 nM

B8: Compound 94 (KT04-16) (peptide)
peptide: {Benzoyl(4-Br)}-RRSEPLHKRVP[Phe(4-Br)]P
modifications: lactam 4-8
- Ki [4]: 0.29 nM

B9: Compound 93 (KT03-19) (peptide)
peptide: [pGlu]RRSEPLHKRVPF[Hyp(OBn)]
modifications: lactam 5-9
- EC50 Gail [3]: 47 nM

B10: Compound 79 (AM03-68) (peptide)
peptide: KRRE[Nle]CLHCRVPFP
modifications: lactam 1-4; disulfide 6-9
- EC50 Gail [3]: 4 nM
- Ki [4]: 0.61 nM

B11: Compound 45 (KT04-42b) (peptide)
peptide: H-[AllylGly]RLS[AllylGly]KGP[dY]
modifications: staple 1-5
- Gαi1 Emax (%) [8]: 100%

B12: Compound 77 (ABB01-106) (peptide)
peptide: [pGlu]RRSEPLHKRVPFP
modifications: lactam 5-9
- EC50 Gail [3]: 6.1 nM
- Ki [4]: 6.2 nM

B13: Compound 84 (ABB01-109) (peptide)
peptide: [Nle]PEHSRKPFP
modifications: lactam 3-7
- Ki [4]: 274 nM

B14: Compound 65 (KT02-99) (peptide)
peptide: Ac-KFRRQRPRLEHKKP[Nle]P[dcypTyr(OBn)]
modifications: lactam 10-13; reading uncertain; also: printed as Ac-K-F-R-R-Q-R-P-R-L-[E-H-K-K]-P-Nle-P-dcypTyrOBn
- Ki [6]: 4.16 nM
- EC50 Gαi1 [7]: 73 nM

B15: Compound 16 (KT01-123) (peptide)
peptide: [pGlu]R[AllylGly]RLS[Alnb]KGP[Nle]PF
modifications: staple 3-7
- Gαi1 Emax (%) [8]: 102%

B16: Compound 23 (KT01-121) (peptide)
peptide: Guanidine-[AllylGly]RLS[AllylGly]KGP[Nle]PF
modifications: staple 1-5
- Gαi1 Emax (%) [8]: 103%

B17: Compound 78 (AM03-67) (peptide)
peptide: [pGlu]RRSEPLHKRV[Oic]FP
modifications: lactam 5-9
- EC50 Gail [3]: 24 nM
- Ki [4]: 173 nM

B18: Compound 90 (KT03-16) (peptide)
peptide: [pGlu][hArg]RSEPLHKRVPFP
modifications: lactam 5-9
- EC50 Gail [3]: 15 nM

B19: Compound 62 (KT02-62) (peptide)
peptide: Ac-KFRRQRPRLEHAKPAPF
modifications: lactam 10-13
- EC50 Gαi1 [7]: 33.4 nM

B20: Compound 20 (KT01-100) (peptide)
peptide: H-[AllylGly]RLS[AllylGly]KGP[Nle]PF
modifications: staple 1-5
- Gαi1 Emax (%) [8]: 100%

B21: Compound 92 (KT03-15) (peptide)
peptide: [pGlu]RRSEPLHKRVP[Phe(4-Br)]P
modifications: lactam 5-9
- EC50 Gail [3]: 16 nM

B22: Compound 50 (KT01-181) (peptide)
peptide: RKPXY
modifications: NH2-R-c[K(N-butenyl)-P-X]-Tyr(Obn): K(N-butenyl) 2 and X (allylglycine) 4 close the macrocycle; Tyr(OBn) 5
- Ki [5]: 7180 nM

B23: Compound 27 (KT01-111) (peptide)
peptide: [pent‑4‑enoyl]RLS[AIH]KGP[Nle]PF
modifications: staple 1-5; not fully specified; printed as Ø-c[X-R-L-S-AIH]-K-G-P-Nle-P-F; reading uncertain
- Ki [5]: 380 nM

B24: Compound 28 (KT01-135) (peptide)
peptide: H-[AllylGly]RLS[Alnb]KGP[Nle]PF
modifications: staple 1-5
- Gαi1 Emax (%) [8]: 106%

B25: Compound 91 (KT03-17) (peptide)
peptide: [pGlu]R[hArg]SEPLHKRVPFP
modifications: lactam 5-9
- EC50 Gail [3]: 4.3 nM
- Ki [4]: 9.4 nM

B26: Compound 64 (KT02-78) (peptide)
peptide: Ac-KFRRQRPRLEHKKP[Nle]P[cypY]
modifications: lactam 10-13
- Ki [6]: 0.77 nM
- EC50 Gαi1 [7]: 19.4 nM

B27: Compound 73 (AM03-66) (peptide)
peptide: KRRE[Nle]PLHSRV[Oic]FP
modifications: lactam 1-4
- EC50 Gail [3]: 14 nM
- Ki [4]: 11 nM

B28: Compound 66 (KT03-02) (peptide)
peptide: Ac-KFRRQRPRLEHKKP[Nle]P[Tyr(OBn)]
modifications: lactam 10-13
- Ki [6]: 1.6 nM
- EC50 Gαi1 [7]: 21.7 nM

B29: Compound 97 (peptide)
peptide: [pGlu]R[AllylGly]RLS[AllylGly]KGP[Nle]PF
modifications: staple 3-7
- Gαi1 Emax (%) [8]: 101%

B30: Compound 17 (KT01-106) (peptide)
peptide: [pGlu]RKRLSDKGP[Nle]PF
modifications: lactam 3-7
- Ki [5]: 39 nM

B31: Compound 75 (ABB01-105) (peptide)
peptide: [pGlu]RRE[Nle]PKHSRVPFP
modifications: lactam 4-7
- EC50 Gail [3]: 19 nM
- Ki [4]: 59 nM

B32: Compound 26 (KT01-120) (peptide)
peptide: [Rx]RLS[AIH]KGP[Nle]PF
modifications: staple 1-5; reading uncertain
- Ki [5]: 382 nM
